Laboratory results reported in patent publication US20080293626A1, “Pigment epithelium-derived factor as a therapeutic agent for vascular leakage” (The Johns Hopkins University, priority 2003, published 2008).

Target: PEDF receptor (unidentified cell surface receptor on bovine retinal capillary endothelial cells)
Assay: cell-based or functional assay

- inhibition of VEGF stimulated endothelial cell migration (BRCEC microchemotaxis chamber), IC50: 500 pM
Substance: Recombinant human pigment epithelium-derived factor (PEDF) (from UniProt P36955 20-418) (ligand)
